The results in this text go back to patent US20230159589A1 (published 2023).

Usually Kd stands for the constant that tells how readily two partners part at equilibrium. For orientation: koff means a measure of how fast the partners let go of each other. A word on the Ki: it is the equilibrium dissociation constant of an inhibitor or competing ligand from its target. Broadly, the kon is a measure of how fast the partners come together. Read a low kon as slow association. Broadly, the IC50 is the midpoint of a concentration-inhibition curve.

Square brackets hold non-standard residues; d marks the D form. Ends that are not written are not given here. F2Pmp = N[C@@H](Cc1ccc(C(F)(F)P(=O)(O)O)cc1)C(=O)O

For assay [1], the target named is STEP32 C/S (catalytically inactive substrate-trapping mutant of the catalytic domain of protein tyrosine phosphatase STEP/PTPN5, aa 282-563, C496S, N-terminal 6xHis tag) (Homo sapiens (Human)) (UniProt P54829). Description: SPR (Biacore 3000), peptide immobilized, STEP32 C/S analyte, 1:1 Langmuir fit. In general terms: In SPR one partner is held on a chip, and binding of the other changes the refractive index at the surface.

Assay [2] shares this target. Description: SPR (value taken from Table S3).
Assay [3] has the same target. The experiment in a line: fluorescence polarization competition; displaces TAMRA-3Y-F2Pmp from STEP32 C/S. (Polarisation of emitted light reports the rotation of a fluorescent probe.)
Assay [4] shares this target. The experiment in a line: SPR; reference p3Y.
For assay [5] the target is unchanged. Description: fluorescence polarization competition; displaces TAM-3Y-F2Pmp from STEP32 C/S.
Assay [6] shares this target. Description: ligand efficiency derived from the binding data.
Assay [7] shares this target. The experiment in a line: fluorescence polarization competition; column headed Kd, the text speaks of IC50 values in Table 3.
The target is the same in assay [8]. The experiment in a line: fluorescence polarization competition; reference EGYNVpY hexapeptide.
For assay [9] the target is unchanged. Description: SPR, peptide immobilized, STEP32 C/S analyte.
The target of assay [10] is T1, STEP32 WT (catalytic domain of protein tyrosine phosphatase STEP/PTPN5, aa 282-563, N-terminal 6xHis tag) (UniProt P54829 282-563).
T1 construct: Expressed from pLIC-SGC1-PTPN5 WT (Addgene 39166); also called catalytic active STEP32
T1 sequence: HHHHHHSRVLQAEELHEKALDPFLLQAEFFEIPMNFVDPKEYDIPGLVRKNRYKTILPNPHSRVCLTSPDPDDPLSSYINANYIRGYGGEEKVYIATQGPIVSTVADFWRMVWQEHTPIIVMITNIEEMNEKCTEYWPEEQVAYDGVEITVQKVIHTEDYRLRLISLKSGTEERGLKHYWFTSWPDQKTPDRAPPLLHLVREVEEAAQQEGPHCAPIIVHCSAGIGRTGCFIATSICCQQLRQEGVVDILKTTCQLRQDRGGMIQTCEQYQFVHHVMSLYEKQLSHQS
Description: SPR, peptide immobilized, STEP32 WT analyte (per FIG. 7 legend).

Assay [11] concerns the target T1, STEP32 WT (catalytic domain of protein …). Description: SPR (Biacore 3000), peptide immobilized, STEP32 WT analyte (per FIG. 7 legend), 1:1 Langmuir fit.

In assay [1], p3Ysh-1 (PEG2-NVpYG) (peptide) came in with a Ka of 38400 M⁻¹, a Kd of 26 µM and a koff of 0.00252 s⁻¹. The molecule also had a dissociation constant Kd in [2] of 26 µM. The molecule further yielded a Ki in assay [3] of 4.99 µM.
On to p3Ysh-2 (PEG2-YNVpYG) (peptide), for which, in assay [1], the Ka stood at 253000 M⁻¹, the Kd turned out to be 3.96 µM, the koff amounted to 0.179 s⁻¹ and the kon was determined as 45200 M⁻¹ s⁻¹. This molecule also registered a fold higher Kd than p3Y in assay [4] of 17 fold. In assay [2], this molecule registered a Kd of 3.96 µM. The molecule also yielded a Ki in [3] of 13.1 µM.
Molecule p3Ysh-3 (PEG2-EGYNVpY) (peptide) showed a Ki in assay [5] of 0.69 µM. In [1], this molecule returned a Ka of 1.88e+07 M⁻¹, a Kd of 0.0531 µM, a koff of 0.00176 s⁻¹ and a kon of 33100 M⁻¹ s⁻¹. In [4], this molecule yielded a fold lower Kd than p3Y of 4 fold and a fold smaller Kd than p3Y of over 2 fold. In assay [2], this molecule displayed a Kd of 0.06 µM. For the same molecule, the Ki in [3] was found to be 1.64 µM. In [6], this molecule gave an LE (ligand efficiency) of 0.64. In addition, the IC50 in assay [7] is 2.6 µM.
p3Ysh-4 (PEG2-NSpYG) (peptide): the inhibition constant (Ki) in [3] amounted to 13.7 µM.
The same measure, in the same setting: to p3Ysh-5 (PEG2-YVpYG) (peptide) belongs 5.34 µM.
In [1], p3Ysh-6 (PEG2-FGYNVpYG) (peptide) yielded a Ka of 163000 M⁻¹, a Kd of 6.13 µM, a koff of 0.11 s⁻¹ and a kon of 17900 M⁻¹ s⁻¹. In addition, the fold higher Kd than p3Y in assay [4] came to 6.4 fold. The Kd in assay [2] stood at 6.13 µM. Besides, in assay [3], the Ki was determined as 6.96 µM.
As for p3Ysh-7 (PEG2-FSpYG) (peptide), the inhibitory constant (Ki) in [3] is 4.57 µM.
In assay [5], p-fin1 (GYNVpY) (peptide) returned a Ki of 1.9 µM. The IC50 in assay [7] amounted to 8.01 µM.
Molecule p-fin2 (DGYNVpY) (peptide) returned a Ki in assay [5] of 1.85 µM. The IC50 in assay [7] was 7.15 µM.
p-fin3 (NGYNVpY) (peptide) gave a Ki in assay [5] of 2.16 µM. The IC50 in assay [7] is 8.84 µM.
p-fin4 (EGYNVpYE) (peptide) registered a Ki in [5] of 0.36 µM. In [1], this molecule yielded a Ka of 1.13e+07 M⁻¹, a Kd of 0.0884 µM, a koff of 0.00692 s⁻¹ and a kon of 78200 M⁻¹ s⁻¹. Moreover, the fold improvement of the inhibition constant over the original hexapeptide in assay [8] came out at 2 fold. In addition, the Kd in assay [9] is 0.09 µM. This molecule displayed a concentration for half-maximal inhibition (IC50) in assay [7] of 1.86 µM.
p-fin5 (EGYNVpYGD) (peptide) registered a Ki in assay [5] of 0.76 µM. This molecule registered an IC50 in assay [7] of 3.36 µM.
Take EGYNV[F2Pmp] (also called 3Ysh-F2Pmp) [3Ysh-3-F2Pmp (EGYNV{F2Pmp})]: the Kd in [10] is 0.24 µM. Moreover, in assay [11], the Ka stood at 4.12e+06 M⁻¹, the Kd is 0.242 µM, the koff came out at 0.00483 s⁻¹ and the kon was determined as 19900 M⁻¹ s⁻¹.
On the same counts, the results for ATYKEGYNV[F2Pmp]G (also called p3Y-F2Pmp) [3Y-F2Pmp (ATYKEGYNV{F2Pmp}G)] are 0.27 µM, 3.74e+06 M⁻¹, 0.268 µM, 0.00656 s⁻¹ and 24500 M⁻¹ s⁻¹.
